In assay [1] the target is human CD33 on tumor cells (A549.CD33; A549 electroporated with CD33 mRNA; HL-60, Kasumi1, OCI-AML3) (human, UniProt P20138 18-364). Briefly: cell-based or functional assay.
Assay [2] concerns the target MAGEA4 peptide presented by HLA-A2 on tumor cells (A549 transduced with MAGEA4 and HLA-A2; A549 pulsed with …). The experiment in a line: cell-based or functional assay.
The target of assay [3] is T1, His labeled CD33-Fc reagent (Acros) (UniProt P20138 18-259).
T1 construct: Secondary staining was with APC labeled streptavidin; not shown: Fc part and His label of the bought reagent
T1 sequence (P20138 18-259): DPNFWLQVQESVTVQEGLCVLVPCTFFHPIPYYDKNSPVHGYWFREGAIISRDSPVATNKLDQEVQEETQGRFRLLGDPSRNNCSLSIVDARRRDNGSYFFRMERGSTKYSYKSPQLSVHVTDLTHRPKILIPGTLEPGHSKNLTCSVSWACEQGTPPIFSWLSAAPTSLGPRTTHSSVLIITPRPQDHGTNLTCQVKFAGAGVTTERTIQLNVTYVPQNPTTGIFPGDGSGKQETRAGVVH
Briefly: flow cytometry; CD33-Fc staining of transduced T cells, APC labeled streptavidin secondary. For orientation: Flow cytometry measures light scatter and fluorescence of single cells or particles in a stream.

Sequence of human CD33 on tumor cells (A549.CD33; A549 electroporated with CD33 mRNA; HL-60, Kasumi1, OCI-AML3) (P20138 18-364): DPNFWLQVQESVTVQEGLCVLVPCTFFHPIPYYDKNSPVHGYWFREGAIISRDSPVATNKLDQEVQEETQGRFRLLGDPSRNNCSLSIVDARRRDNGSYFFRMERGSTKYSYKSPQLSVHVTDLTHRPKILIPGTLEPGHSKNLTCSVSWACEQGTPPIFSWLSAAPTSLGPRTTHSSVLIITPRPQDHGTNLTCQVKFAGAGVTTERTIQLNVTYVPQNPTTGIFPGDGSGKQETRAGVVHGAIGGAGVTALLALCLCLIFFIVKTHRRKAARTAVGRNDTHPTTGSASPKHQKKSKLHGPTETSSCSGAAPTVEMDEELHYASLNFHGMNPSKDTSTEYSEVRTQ

B1: VHH-TCR with a VHH added to the TRA separated by a mu linker (LEKT)+G4S; TRB-P2A-CD33.VHH-mLNK.1xG4S-TRA (SEQ ID NO: 94) (TCR)
TCR beta: DSGVTQTPKHLITATGQRVTLRCSPRSGDLSVYWYQQSLDQGLQFLIQYYNGEERAKGNILERFSAQQFPDLHSELNLSSLELGDSALYFCASSGGDGDEQFFGPGTRLTVLEDLKNVFPPEVAVFEPSKAEIAHTQKATLVCLATGFYPDHVELSWWVNGKEVHSGVSTDPQPLKEQPALNDSRYCLSSRLRVSATFWQNPRNHFRCQVQFYGLSENDEWTQDRAKPVTQIVSAEAWGRADCGITSASYHQGVLSATILYEILLGKATLYAVLVSALVLMAMVKRKDSRG
TCR alpha: EVQLVESGGGEVQPGGSLRLSCAASRSSGIDVMGWYRQAPGKERELVAEISGVGDTNYAASLADRFTVSRDNAKNTVYLQMSSLRAEDTAVYYCNAHSFLDLVGAWGQGTLVTVKPLEKTGGGGSAQKITQTQPGMFVQEKEAVTLDCTYDTSDPSYGLFWYKQPSSGEMIFLIYQGSYDQQNATEGRYSLNFQKARKSANLVISASQLGDSAMYFCAMSGGYTGGFKTIFGAGTRLFVKANIQNPDPAVYQLRDSKSSDKSVCLFTDFDSQTNVSQSKDSDVYITDKTVLDMRSMDFKSNSAVAWSNKSDFACANAFNNSIIPEDTFFPSSDVPCDVKLVEKSFETDTNLNFQNLLVIVLRILLLKVAGFNLLMTLRLWSS
Take B1: the values for the interferon gamma production in assay [1] and in assay [2] were greater than 2 fold and roughly 3 fold, respectively.

B2: engineered dual-targeting TCR (VHH-TCR): MAGEA4-reactive, HLA-A2-restricted TCR embedded with a VHH targeting human CD33; TRB-P2A-CD33.VHH-mLNK-TRA (SEQ ID NO: … (TCR)
TCR beta: DSGVTQTPKHLITATGQRVTLRCSPRSGDLSVYWYQQSLDQGLQFLIQYYNGEERAKGNILERFSAQQFPDLHSELNLSSLELGDSALYFCASSGGDGDEQFFGPGTRLTVLEDLKNVFPPEVAVFEPSKAEIAHTQKATLVCLATGFYPDHVELSWWVNGKEVHSGVSTDPQPLKEQPALNDSRYCLSSRLRVSATFWQNPRNHFRCQVQFYGLSENDEWTQDRAKPVTQIVSAEAWGRADCGITSASYHQGVLSATILYEILLGKATLYAVLVSALVLMAMVKRKDSRG
TCR alpha: EVQLVESGGGEVQPGGSLRLSCAASRSSGIDVMGWYRQAPGKERELVAEISGVGDTNYAASLADRFTVSRDNAKNTVYLQMSSLRAEDTAVYYCNAHSFLDLVGAWGQGTLVTVKPLEKTAQKITQTQPGMFVQEKEAVTLDCTYDTSDPSYGLFWYKQPSSGEMIFLIYQGSYDQQNATEGRYSLNFQKARKSANLVISASQLGDSAMYFCAMSGGYTGGFKTIFGAGTRLFVKANIQNPDPAVYQLRDSKSSDKSVCLFTDFDSQTNVSQSKDSDVYITDKTVLDMRSMDFKSNSAVAWSNKSDFACANAFNNSIIPEDTFFPSSDVPCDVKLVEKSFETDTNLNFQNLLVIVLRILLLKVAGFNLLMTLRLWSS
In assay [2], B2 showed an interferon gamma production of roughly 3 fold.

B3: VHH-TCR with a VHH added to the TRA separated by a 1xG4S; TRB-P2A-CD33.VHH-1xG4S-TRA (SEQ ID NO: 95) (TCR)
TCR beta: DSGVTQTPKHLITATGQRVTLRCSPRSGDLSVYWYQQSLDQGLQFLIQYYNGEERAKGNILERFSAQQFPDLHSELNLSSLELGDSALYFCASSGGDGDEQFFGPGTRLTVLEDLKNVFPPEVAVFEPSKAEIAHTQKATLVCLATGFYPDHVELSWWVNGKEVHSGVSTDPQPLKEQPALNDSRYCLSSRLRVSATFWQNPRNHFRCQVQFYGLSENDEWTQDRAKPVTQIVSAEAWGRADCGITSASYHQGVLSATILYEILLGKATLYAVLVSALVLMAMVKRKDSRG
TCR alpha: EVQLVESGGGEVQPGGSLRLSCAASRSSGIDVMGWYRQAPGKERELVAEISGVGDTNYAASLADRFTVSRDNAKNTVYLQMSSLRAEDTAVYYCNAHSFLDLVGAWGQGTLVTVKPGGGGSAQKITQTQPGMFVQEKEAVTLDCTYDTSDPSYGLFWYKQPSSGEMIFLIYQGSYDQQNATEGRYSLNFQKARKSANLVISASQLGDSAMYFCAMSGGYTGGFKTIFGAGTRLFVKANIQNPDPAVYQLRDSKSSDKSVCLFTDFDSQTNVSQSKDSDVYITDKTVLDMRSMDFKSNSAVAWSNKSDFACANAFNNSIIPEDTFFPSSDVPCDVKLVEKSFETDTNLNFQNLLVIVLRILLLKVAGFNLLMTLRLWSS
notes: also called VHH-TCR with 1G4S; VHH-TCR with one G4S
As to B3, the binding result in assay [3] is listed as “binds”.

B4: VHH-TCR with a VHH added to the TRA separated by a 2xG4S; TRB-P2A-CD33.VHH-2xG4S-TRA (SEQ ID NO: 96) (TCR)
TCR beta: DSGVTQTPKHLITATGQRVTLRCSPRSGDLSVYWYQQSLDQGLQFLIQYYNGEERAKGNILERFSAQQFPDLHSELNLSSLELGDSALYFCASSGGDGDEQFFGPGTRLTVLEDLKNVFPPEVAVFEPSKAEIAHTQKATLVCLATGFYPDHVELSWWVNGKEVHSGVSTDPQPLKEQPALNDSRYCLSSRLRVSATFWQNPRNHFRCQVQFYGLSENDEWTQDRAKPVTQIVSAEAWGRADCGITSASYHQGVLSATILYEILLGKATLYAVLVSALVLMAMVKRKDSRG
TCR alpha: EVQLVESGGGEVQPGGSLRLSCAASRSSGIDVMGWYRQAPGKERELVAEISGVGDTNYAASLADRFTVSRDNAKNTVYLQMSSLRAEDTAVYYCNAHSFLDLVGAWGQGTLVTVKPGGGGSGGGGSAQKITQTQPGMFVQEKEAVTLDCTYDTSDPSYGLFWYKQPSSGEMIFLIYQGSYDQQNATEGRYSLNFQKARKSANLVISASQLGDSAMYFCAMSGGYTGGFKTIFGAGTRLFVKANIQNPDPAVYQLRDSKSSDKSVCLFTDFDSQTNVSQSKDSDVYITDKTVLDMRSMDFKSNSAVAWSNKSDFACANAFNNSIIPEDTFFPSSDVPCDVKLVEKSFETDTNLNFQNLLVIVLRILLLKVAGFNLLMTLRLWSS
notes: also called VHH-TCR with 2G4S; VHH-TCR with two G4Ss
B4: the binding result in assay [3] is reported as “binds”.

B5: MAGEA4-reactive, HLA-A2-restricted TCR embedded with tandem VHHs targeting human CD33 and CLL1; TRB-P2A-CLL1-CD33.VHH-mLNK.1xG4S-TRA (SEQ ID NO: 97) (TCR)
TCR beta: DSGVTQTPKHLITATGQRVTLRCSPRSGDLSVYWYQQSLDQGLQFLIQYYNGEERAKGNILERFSAQQFPDLHSELNLSSLELGDSALYFCASSGGDGDEQFFGPGTRLTVLEDLKNVFPPEVAVFEPSKAEIAHTQKATLVCLATGFYPDHVELSWWVNGKEVHSGVSTDPQPLKEQPALNDSRYCLSSRLRVSATFWQNPRNHFRCQVQFYGLSENDEWTQDRAKPVTQIVSAEAWGRADCGITSASYHQGVLSATILYEILLGKATLYAVLVSALVLMAMVKRKDSRG
TCR alpha: EVQLVESGGGEVQPGGSLRLSCAASGFLFSIYDMNWYRQAPGKEREWVAGITNNGYSTAYAESVKGRFTISRDNAKNTIYLQMSSLRAEDTAVYYCHADLTKAYDVEYAWGQGTLVTVKPGGGGSGGGGSEVQLVESGGGEVQPGGSLRLSCAASRSSGIDVMGWYRQAPGKERELVAEISGVGDTNYAASLADRFTVSRDNAKNTVYLQMSSLRAEDTAVYYCNAHSFLDLVGAWGQGTLVTVKPLEKTGGGGSAQKITQTQPGMFVQEKEAVTLDCTYDTSDPSYGLFWYKQPSSGEMIFLIYQGSYDQQNATEGRYSLNFQKARKSANLVISASQLGDSAMYFCAMSGGYTGGFKTIFGAGTRLFVKANIQNPDPAVYQLRDSKSSDKSVCLFTDFDSQTNVSQSKDSDVYITDKTVLDMRSMDFKSNSAVAWSNKSDFACANAFNNSIIPEDTFFPSSDVPCDVKLVEKSFETDTNLNFQNLLVIVLRILLLKVAGFNLLMTLRLWSS
notes: also called CD33-CLL1-TCR; CD33-CLL1 TCR
As for B5, the binding result in assay [3] is given as “binds”.

B6: VHH-TCR with a VHH added to the TRB separated by a marsupial mu linker (LEKT); CD33.VHH-mLNK-TRB-P2A-TRA (SEQ ID NO: 91) (TCR)
TCR beta: EVQLVESGGGEVQPGGSLRLSCAASRSSGIDVMGWYRQAPGKERELVAEISGVGDTNYAASLADRFTVSRDNAKNTVYLQMSSLRAEDTAVYYCNAHSFLDLVGAWGQGTLVTVKPLEKTDSGVTQTPKHLITATGQRVTLRCSPRSGDLSVYWYQQSLDQGLQFLIQYYNGEERAKGNILERFSAQQFPDLHSELNLSSLELGDSALYFCASSGGDGDEQFFGPGTRLTVLEDLKNVFPPEVAVFEPSKAEIAHTQKATLVCLATGFYPDHVELSWWVNGKEVHSGVSTDPQPLKEQPALNDSRYCLSSRLRVSATFWQNPRNHFRCQVQFYGLSENDEWTQDRAKPVTQIVSAEAWGRADCGITSASYHQGVLSATILYEILLGKATLYAVLVSALVLMAMVKRKDSRG
TCR alpha: AQKITQTQPGMFVQEKEAVTLDCTYDTSDPSYGLFWYKQPSSGEMIFLIYQGSYDQQNATEGRYSLNFQKARKSANLVISASQLGDSAMYFCAMSGGYTGGFKTIFGAGTRLFVKANIQNPDPAVYQLRDSKSSDKSVCLFTDFDSQTNVSQSKDSDVYITDKTVLDMRSMDFKSNSAVAWSNKSDFACANAFNNSIIPEDTFFPSSDVPCDVKLVEKSFETDTNLNFQNLLVIVLRILLLKVAGFNLLMTLRLWSS
As to B6, the interferon gamma production in assay [1] is greater than 2 fold.

B7: VHH-TCR with a VHH added to the TRB separated by a mu linker+G4S; CD33.VHH-mLNK.1xG4S-TRB-P2A-TRA (SEQ ID NO: 92) (TCR)
TCR beta: EVQLVESGGGEVQPGGSLRLSCAASRSSGIDVMGWYRQAPGKERELVAEISGVGDTNYAASLADRFTVSRDNAKNTVYLQMSSLRAEDTAVYYCNAHSFLDLVGAWGQGTLVTVKPLEKTGGGGSDSGVTQTPKHLITATGQRVTLRCSPRSGDLSVYWYQQSLDQGLQFLIQYYNGEERAKGNILERFSAQQFPDLHSELNLSSLELGDSALYFCASSGGDGDEQFFGPGTRLTVLEDLKNVFPPEVAVFEPSKAEIAHTQKATLVCLATGFYPDHVELSWWVNGKEVHSGVSTDPQPLKEQPALNDSRYCLSSRLRVSATFWQNPRNHFRCQVQFYGLSENDEWTQDRAKPVTQIVSAEAWGRADCGITSASYHQGVLSATILYEILLGKATLYAVLVSALVLMAMVKRKDSRG
TCR alpha: AQKITQTQPGMFVQEKEAVTLDCTYDTSDPSYGLFWYKQPSSGEMIFLIYQGSYDQQNATEGRYSLNFQKARKSANLVISASQLGDSAMYFCAMSGGYTGGFKTIFGAGTRLFVKANIQNPDPAVYQLRDSKSSDKSVCLFTDFDSQTNVSQSKDSDVYITDKTVLDMRSMDFKSNSAVAWSNKSDFACANAFNNSIIPEDTFFPSSDVPCDVKLVEKSFETDTNLNFQNLLVIVLRILLLKVAGFNLLMTLRLWSS
For B7, in assay [1], the interferon gamma production was greater than 2 fold.
